Results from the supplement of paper PMC10065799, “High-throughput profiling of sequence recognition by tyrosine kinases and SH2 domains using bacterial peptide display” (eLife, 2023).

Key:
FGFR1 = FGFR1 (UniProt P11362); assay: phosphorylation enrichment, bacterial display (enrichment ratio); higher = better substrate or ligand; peptides without Tyr show the background
Fer (mouse) = assay: as above
Fyn = Fyn (UniProt P06241); assay: as above
AncSZ = assay: as above
c-Src = assay: as above
EPHB1 = EPHB1 (UniProt P54762); assay: as above
MERTK = MERTK (UniProt Q12866); assay: as above
Jak2 = Jak2 (UniProt O60674); assay: as above
Hck = Hck (UniProt P08631); assay: as above
c-Abl (mouse) = assay: as above
Fes = Fes (UniProt P07332); assay: as above
EPHB2 = EPHB2 (UniProt P29323); assay: as above
FGFR3 = FGFR3 (UniProt P22607); assay: as above
Grb2 SH2 = Grb2 SH2 (UniProt P62993); assay: SH2 binding enrichment of the phosphorylated peptide, bacterial display (enrichment ratio); higher = better substrate or ligand; peptides without Tyr show the background
c-Src SH2 = assay: as above
SHP2-C SH2 = assay: as above
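For SH2 binding enrichment of the phosphorylated peptide, bacterial display in this document: peptide library displayed on the E. coli surface as eCPX fusions, selected cells deep-sequenced, score is each peptide's frequency after selection divided by its frequency in the input.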
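For phosphorylation enrichment, bacterial display in this document: 11-residue human phosphosite peptides and single-mutation variants displayed on the E. coli surface, counted by deep sequencing, each peptide's frequency after selection divided by its frequency in the unselected input library; frequency after pTyr selection over input frequency; kinase dosed for 20-30% of maximal phosphorylation in three min.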

Chain of Grb2 SH2 (P62993 whole entry, looked up): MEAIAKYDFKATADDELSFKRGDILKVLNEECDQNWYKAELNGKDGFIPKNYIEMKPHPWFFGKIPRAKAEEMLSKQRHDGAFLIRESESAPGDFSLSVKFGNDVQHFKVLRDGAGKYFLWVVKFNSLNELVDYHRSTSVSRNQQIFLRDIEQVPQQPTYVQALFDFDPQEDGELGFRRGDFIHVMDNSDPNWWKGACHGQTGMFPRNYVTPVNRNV
Chain of FGFR3 (P22607 whole entry, looked up): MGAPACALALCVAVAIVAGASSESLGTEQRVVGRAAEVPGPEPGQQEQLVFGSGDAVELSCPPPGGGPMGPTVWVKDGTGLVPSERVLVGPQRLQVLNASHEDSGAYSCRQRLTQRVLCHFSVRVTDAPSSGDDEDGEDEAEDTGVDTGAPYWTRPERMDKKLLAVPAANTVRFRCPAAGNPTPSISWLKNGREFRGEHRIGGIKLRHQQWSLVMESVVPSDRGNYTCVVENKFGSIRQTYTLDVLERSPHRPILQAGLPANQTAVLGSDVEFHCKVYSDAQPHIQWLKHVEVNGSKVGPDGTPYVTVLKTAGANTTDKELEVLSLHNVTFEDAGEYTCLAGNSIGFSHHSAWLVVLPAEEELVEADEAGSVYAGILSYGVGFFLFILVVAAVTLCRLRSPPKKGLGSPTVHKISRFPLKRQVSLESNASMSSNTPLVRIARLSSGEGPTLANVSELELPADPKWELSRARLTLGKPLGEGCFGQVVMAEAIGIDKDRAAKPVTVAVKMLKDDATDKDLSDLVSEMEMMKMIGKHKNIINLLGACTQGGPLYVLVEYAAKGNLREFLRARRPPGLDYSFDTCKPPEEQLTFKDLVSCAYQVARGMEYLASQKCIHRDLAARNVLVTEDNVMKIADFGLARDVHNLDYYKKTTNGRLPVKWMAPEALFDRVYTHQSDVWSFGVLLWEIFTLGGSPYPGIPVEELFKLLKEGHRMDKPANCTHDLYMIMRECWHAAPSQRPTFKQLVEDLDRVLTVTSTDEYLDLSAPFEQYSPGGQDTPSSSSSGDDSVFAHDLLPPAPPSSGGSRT
Chain of Jak2 (O60674 whole entry, looked up): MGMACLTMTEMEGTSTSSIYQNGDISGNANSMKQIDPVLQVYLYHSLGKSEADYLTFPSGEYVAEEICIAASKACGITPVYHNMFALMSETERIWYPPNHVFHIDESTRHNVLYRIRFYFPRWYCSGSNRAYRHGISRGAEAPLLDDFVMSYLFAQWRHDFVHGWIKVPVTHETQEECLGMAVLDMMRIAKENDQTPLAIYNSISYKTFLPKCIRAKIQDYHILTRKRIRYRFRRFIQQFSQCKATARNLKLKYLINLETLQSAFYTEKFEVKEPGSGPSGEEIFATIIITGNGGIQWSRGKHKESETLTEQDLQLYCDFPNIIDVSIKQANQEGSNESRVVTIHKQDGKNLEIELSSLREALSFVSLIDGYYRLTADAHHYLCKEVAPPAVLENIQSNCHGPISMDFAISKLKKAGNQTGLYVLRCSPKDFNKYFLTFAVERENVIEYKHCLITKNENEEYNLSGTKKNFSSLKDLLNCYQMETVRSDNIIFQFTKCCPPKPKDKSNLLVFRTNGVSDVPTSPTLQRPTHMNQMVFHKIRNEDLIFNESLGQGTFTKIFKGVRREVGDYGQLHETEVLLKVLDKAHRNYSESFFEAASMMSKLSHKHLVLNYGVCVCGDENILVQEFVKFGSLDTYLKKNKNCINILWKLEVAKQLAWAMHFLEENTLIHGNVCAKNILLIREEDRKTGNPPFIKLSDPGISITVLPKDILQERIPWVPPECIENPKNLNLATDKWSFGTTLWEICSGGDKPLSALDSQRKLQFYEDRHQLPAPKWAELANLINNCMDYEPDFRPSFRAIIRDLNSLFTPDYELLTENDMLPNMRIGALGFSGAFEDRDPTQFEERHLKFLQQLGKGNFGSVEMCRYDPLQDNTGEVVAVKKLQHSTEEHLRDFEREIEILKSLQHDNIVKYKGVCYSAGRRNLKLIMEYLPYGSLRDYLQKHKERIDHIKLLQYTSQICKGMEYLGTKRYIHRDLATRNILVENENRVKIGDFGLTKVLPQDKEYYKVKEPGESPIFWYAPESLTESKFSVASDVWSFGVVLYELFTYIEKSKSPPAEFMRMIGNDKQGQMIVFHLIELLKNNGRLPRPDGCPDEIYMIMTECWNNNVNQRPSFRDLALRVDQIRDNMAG
Chain of Hck (P08631 whole entry, looked up): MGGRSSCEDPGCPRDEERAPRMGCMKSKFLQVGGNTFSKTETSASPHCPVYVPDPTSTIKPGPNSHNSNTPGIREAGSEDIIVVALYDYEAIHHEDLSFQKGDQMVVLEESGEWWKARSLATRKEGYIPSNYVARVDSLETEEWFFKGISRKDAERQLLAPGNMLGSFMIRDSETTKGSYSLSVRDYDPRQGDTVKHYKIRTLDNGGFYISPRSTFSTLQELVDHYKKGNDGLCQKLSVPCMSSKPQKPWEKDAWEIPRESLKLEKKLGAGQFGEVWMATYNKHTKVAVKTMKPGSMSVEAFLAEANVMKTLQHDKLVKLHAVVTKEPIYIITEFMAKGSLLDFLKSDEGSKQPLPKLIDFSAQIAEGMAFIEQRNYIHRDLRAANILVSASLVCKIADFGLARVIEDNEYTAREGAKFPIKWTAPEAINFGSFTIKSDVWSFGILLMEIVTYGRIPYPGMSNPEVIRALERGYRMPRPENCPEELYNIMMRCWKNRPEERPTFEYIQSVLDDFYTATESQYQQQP
Chain of MERTK (Q12866 whole entry, looked up): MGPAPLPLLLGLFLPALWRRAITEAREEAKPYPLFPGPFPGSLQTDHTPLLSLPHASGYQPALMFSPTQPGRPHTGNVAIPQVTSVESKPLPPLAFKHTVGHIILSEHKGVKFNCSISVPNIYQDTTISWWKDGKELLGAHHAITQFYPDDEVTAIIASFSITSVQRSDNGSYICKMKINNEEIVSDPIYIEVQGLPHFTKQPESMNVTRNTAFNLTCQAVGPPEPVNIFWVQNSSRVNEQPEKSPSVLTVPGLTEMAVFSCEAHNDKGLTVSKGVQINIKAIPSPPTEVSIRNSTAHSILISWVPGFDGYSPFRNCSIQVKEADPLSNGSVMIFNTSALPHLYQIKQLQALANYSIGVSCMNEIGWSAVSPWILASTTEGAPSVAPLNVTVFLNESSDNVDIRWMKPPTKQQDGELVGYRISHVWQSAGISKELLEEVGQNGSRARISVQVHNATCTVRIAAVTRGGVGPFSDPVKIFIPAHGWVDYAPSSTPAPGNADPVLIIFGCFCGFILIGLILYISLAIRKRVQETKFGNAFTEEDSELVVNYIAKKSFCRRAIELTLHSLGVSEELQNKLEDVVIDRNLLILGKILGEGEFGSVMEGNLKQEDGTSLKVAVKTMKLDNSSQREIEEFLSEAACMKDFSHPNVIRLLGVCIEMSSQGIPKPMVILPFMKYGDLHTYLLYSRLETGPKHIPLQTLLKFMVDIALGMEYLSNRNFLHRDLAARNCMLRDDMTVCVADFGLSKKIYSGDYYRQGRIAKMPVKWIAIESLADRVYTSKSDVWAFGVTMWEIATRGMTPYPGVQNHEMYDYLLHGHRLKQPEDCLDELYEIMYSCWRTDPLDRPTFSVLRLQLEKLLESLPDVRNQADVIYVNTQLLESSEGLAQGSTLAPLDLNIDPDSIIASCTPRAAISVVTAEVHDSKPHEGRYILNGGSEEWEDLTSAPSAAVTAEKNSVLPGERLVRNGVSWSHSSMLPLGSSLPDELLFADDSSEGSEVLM
Chain of Fes (P07332 whole entry, looked up): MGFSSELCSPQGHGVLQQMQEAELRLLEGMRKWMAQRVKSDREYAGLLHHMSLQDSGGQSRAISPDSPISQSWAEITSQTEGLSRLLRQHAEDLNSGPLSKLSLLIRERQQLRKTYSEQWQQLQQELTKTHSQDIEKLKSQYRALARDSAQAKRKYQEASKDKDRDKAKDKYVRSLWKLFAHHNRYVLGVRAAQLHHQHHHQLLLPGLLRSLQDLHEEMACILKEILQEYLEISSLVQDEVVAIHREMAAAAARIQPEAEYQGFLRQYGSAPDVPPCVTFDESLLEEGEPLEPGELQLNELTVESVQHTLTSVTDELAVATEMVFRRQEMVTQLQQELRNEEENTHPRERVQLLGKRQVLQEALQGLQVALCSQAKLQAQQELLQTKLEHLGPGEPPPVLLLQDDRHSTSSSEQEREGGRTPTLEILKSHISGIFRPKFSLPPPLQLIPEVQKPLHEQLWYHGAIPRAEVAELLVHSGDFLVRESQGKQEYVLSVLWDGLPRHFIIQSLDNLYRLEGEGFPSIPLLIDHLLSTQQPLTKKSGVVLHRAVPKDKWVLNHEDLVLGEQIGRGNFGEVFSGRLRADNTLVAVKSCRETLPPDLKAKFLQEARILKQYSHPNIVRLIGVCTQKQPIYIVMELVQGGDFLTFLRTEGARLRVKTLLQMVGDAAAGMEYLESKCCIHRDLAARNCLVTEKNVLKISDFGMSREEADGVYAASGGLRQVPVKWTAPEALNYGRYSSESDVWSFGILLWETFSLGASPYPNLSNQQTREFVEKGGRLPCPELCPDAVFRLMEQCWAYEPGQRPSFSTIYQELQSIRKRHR
Chain of Fyn (P06241 whole entry, looked up): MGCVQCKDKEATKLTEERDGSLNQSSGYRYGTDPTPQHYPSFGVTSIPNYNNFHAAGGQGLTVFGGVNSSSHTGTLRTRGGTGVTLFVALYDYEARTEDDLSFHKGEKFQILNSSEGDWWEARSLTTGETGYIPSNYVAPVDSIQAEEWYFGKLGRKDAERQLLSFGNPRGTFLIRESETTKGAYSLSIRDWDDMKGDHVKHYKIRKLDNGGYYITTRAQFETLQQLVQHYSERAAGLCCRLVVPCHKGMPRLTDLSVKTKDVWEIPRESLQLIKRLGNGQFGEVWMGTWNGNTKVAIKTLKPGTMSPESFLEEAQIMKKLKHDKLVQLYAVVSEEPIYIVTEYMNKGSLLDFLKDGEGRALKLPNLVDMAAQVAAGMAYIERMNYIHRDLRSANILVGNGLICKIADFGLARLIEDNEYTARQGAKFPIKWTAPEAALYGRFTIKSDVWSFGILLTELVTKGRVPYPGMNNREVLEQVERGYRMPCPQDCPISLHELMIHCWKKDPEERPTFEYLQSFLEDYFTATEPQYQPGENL

Work on GGGMFYPLDLF yielded a phosphorylation enrichment (FGFR1) of 0.405, a phosphorylation enrichment (Fer (mouse)) of 0.405 and a phosphorylation enrichment (Fyn) of 0.453. For the same sequence, the phosphorylation enrichment (AncSZ) was 0.942, the phosphorylation enrichment (c-Src) was 0.388 and the phosphorylation enrichment (EPHB1) was 0.503. The phosphorylation enrichment (MERTK) was 0.372, the phosphorylation enrichment (Jak2) was 0.891 and the phosphorylation enrichment (Hck) was 0.499. The phosphorylation enrichment (c-Abl (mouse)) was 0.627, the phosphorylation enrichment (Fes) was 1.1 and the phosphorylation enrichment (EPHB2) was 0.454. The phosphorylation enrichment (FGFR3) was 0.693, the SH2 binding enrichment (Grb2 SH2) was 1.07 and the SH2 binding enrichment (c-Src SH2) was 0.532. It also gave an SH2 binding enrichment (SHP2-C SH2) of 0.749.

GGMTEYELVVV [KRAS_Y4_K5E] was tested, and the phosphorylation enrichment (FGFR1) was 2.95, the phosphorylation enrichment (Fer (mouse)) was 7.66 and the phosphorylation enrichment (Fyn) was 0.664. The phosphorylation enrichment (AncSZ) was 1.6, the phosphorylation enrichment (c-Src) was 0.651 and the phosphorylation enrichment (EPHB1) was 1.39. For the same sequence, the phosphorylation enrichment (MERTK) was 0.456, the phosphorylation enrichment (Jak2) was 1 and the phosphorylation enrichment (Hck) was 0.585. For the same sequence, the phosphorylation enrichment (c-Abl (mouse)) was 0.589, the phosphorylation enrichment (Fes) was 1.04 and the phosphorylation enrichment (EPHB2) was 1.15. The phosphorylation enrichment (FGFR3) was 1.62, the SH2 binding enrichment (Grb2 SH2) was 0.792 and the SH2 binding enrichment (c-Src SH2) was 0.525. It also gave an SH2 binding enrichment (SHP2-C SH2) of 0.528.

In the case of GGPTFYIDTNA [ACTL6A_Y69_YF], the phosphorylation enrichment (FGFR1) is reported as 0.542, the phosphorylation enrichment (Fer (mouse)) is reported as 0.529 and the phosphorylation enrichment (Fyn) is reported as 0.458. It also gave a phosphorylation enrichment (AncSZ) of 1.24, a phosphorylation enrichment (c-Src) of 0.439 and a phosphorylation enrichment (EPHB1) of 0.707. The phosphorylation enrichment (MERTK) was 0.41, the phosphorylation enrichment (Jak2) was 1.13 and the phosphorylation enrichment (Hck) was 0.53. It also gave a phosphorylation enrichment (c-Abl (mouse)) of 0.775, a phosphorylation enrichment (Fes) of 1.39 and a phosphorylation enrichment (EPHB2) of 0.626. The phosphorylation enrichment (FGFR3) was 0.868, the SH2 binding enrichment (Grb2 SH2) was 0.874 and the SH2 binding enrichment (c-Src SH2) was 0.577. For the same sequence, the SH2 binding enrichment (SHP2-C SH2) was 0.608.

Sequence GHEEFYSTHPH [LRRK2_Y1402_R1398H] has a phosphorylation enrichment (FGFR1) of 0.76, a phosphorylation enrichment (Fer (mouse)) of 1.41 and a phosphorylation enrichment (Fyn) of 0.638. For the same sequence, the phosphorylation enrichment (AncSZ) was 0.664, the phosphorylation enrichment (c-Src) was 1.2 and the phosphorylation enrichment (EPHB1) was 0.617. The phosphorylation enrichment (MERTK) was 1.77, the phosphorylation enrichment (Jak2) was 0.59 and the phosphorylation enrichment (Hck) was 1.15. It also gave a phosphorylation enrichment (c-Abl (mouse)) of 0.504, a phosphorylation enrichment (Fes) of 0.626 and a phosphorylation enrichment (EPHB2) of 0.7. The phosphorylation enrichment (FGFR3) was 0.549, the SH2 binding enrichment (Grb2 SH2) was 0.771 and the SH2 binding enrichment (c-Src SH2) was 0.434. It also gave an SH2 binding enrichment (SHP2-C SH2) of 1.09.

Sequence GHEYIYVDRMQ [PDGFRB_Y581_P584R] has a phosphorylation enrichment (FGFR1) of 5.2, a phosphorylation enrichment (Fer (mouse)) of 0.472 and a phosphorylation enrichment (Fyn) of 1.94. The phosphorylation enrichment (AncSZ) was 0.891, the phosphorylation enrichment (c-Src) was 2.62 and the phosphorylation enrichment (EPHB1) was 0.796. The phosphorylation enrichment (MERTK) was 0.48, the phosphorylation enrichment (Jak2) was 0.644 and the phosphorylation enrichment (Hck) was 1.44. The phosphorylation enrichment (c-Abl (mouse)) was 0.607, the phosphorylation enrichment (Fes) was 0.695 and the phosphorylation enrichment (EPHB2) was 0.546. For the same sequence, the phosphorylation enrichment (FGFR3) was 3.24, the SH2 binding enrichment (Grb2 SH2) was 0.878 and the SH2 binding enrichment (c-Src SH2) was 0.746. The SH2 binding enrichment (SHP2-C SH2) was 0.859.

Work on GHGEEYPVAGA [NOTCH3_Y2221_A2223V] yielded a phosphorylation enrichment (FGFR1) of 0.481, a phosphorylation enrichment (Fer (mouse)) of 0.408 and a phosphorylation enrichment (Fyn) of 0.438. The phosphorylation enrichment (AncSZ) was 0.763, the phosphorylation enrichment (c-Src) was 0.398 and the phosphorylation enrichment (EPHB1) was 0.451. The phosphorylation enrichment (MERTK) was 0.373, the phosphorylation enrichment (Jak2) was 0.682 and the phosphorylation enrichment (Hck) was 0.421. It also gave a phosphorylation enrichment (c-Abl (mouse)) of 0.592, a phosphorylation enrichment (Fes) of 0.755 and a phosphorylation enrichment (EPHB2) of 0.424. It also gave a phosphorylation enrichment (FGFR3) of 0.48, an SH2 binding enrichment (Grb2 SH2) of 0.762 and an SH2 binding enrichment (c-Src SH2) of 0.413. For the same sequence, the SH2 binding enrichment (SHP2-C SH2) was 0.621.

Sequence GHMFAYDWISI [BEST1_Y227_L224M_YF] has a phosphorylation enrichment (FGFR1) of 3.48, a phosphorylation enrichment (Fer (mouse)) of 13.8 and a phosphorylation enrichment (Fyn) of 0.935. For the same sequence, the phosphorylation enrichment (AncSZ) was 1.47, the phosphorylation enrichment (c-Src) was 1.28 and the phosphorylation enrichment (EPHB1) was 1.05. For the same sequence, the phosphorylation enrichment (MERTK) was 7.14, the phosphorylation enrichment (Jak2) was 0.842 and the phosphorylation enrichment (Hck) was 1.78. The phosphorylation enrichment (c-Abl (mouse)) was 0.922, the phosphorylation enrichment (Fes) was 2.68 and the phosphorylation enrichment (EPHB2) was 0.933. For the same sequence, the phosphorylation enrichment (FGFR3) was 2.15, the SH2 binding enrichment (Grb2 SH2) was 1.25 and the SH2 binding enrichment (c-Src SH2) was 1.15. The SH2 binding enrichment (SHP2-C SH2) was 1.03.

With GHNDVYILEHV [GRIN2A_Y1423_S1425L] the phosphorylation enrichment (FGFR1) was 0.43, the phosphorylation enrichment (Fer (mouse)) was 0.567 and the phosphorylation enrichment (Fyn) was 4.4. The phosphorylation enrichment (AncSZ) was 0.861, the phosphorylation enrichment (c-Src) was 2.94 and the phosphorylation enrichment (EPHB1) was 0.452. For the same sequence, the phosphorylation enrichment (MERTK) was 0.378, the phosphorylation enrichment (Jak2) was 0.668 and the phosphorylation enrichment (Hck) was 1.04. The phosphorylation enrichment (c-Abl (mouse)) was 0.54, the phosphorylation enrichment (Fes) was 1.03 and the phosphorylation enrichment (EPHB2) was 0.518. The phosphorylation enrichment (FGFR3) was 0.594, the SH2 binding enrichment (Grb2 SH2) was 0.717 and the SH2 binding enrichment (c-Src SH2) was 0.48. For the same sequence, the SH2 binding enrichment (SHP2-C SH2) was 0.755.

For GINDDHGQLKN [NBN_Y679_Y679H], the phosphorylation enrichment (FGFR1) was 0.471, the phosphorylation enrichment (Fer (mouse)) was 0.426 and the phosphorylation enrichment (Fyn) was 0.537. The phosphorylation enrichment (AncSZ) was 0.757, the phosphorylation enrichment (c-Src) was 0.382 and the phosphorylation enrichment (EPHB1) was 0.448. For the same sequence, the phosphorylation enrichment (MERTK) was 0.473, the phosphorylation enrichment (Jak2) was 0.591 and the phosphorylation enrichment (Hck) was 0.484. It also gave a phosphorylation enrichment (c-Abl (mouse)) of 0.524, a phosphorylation enrichment (Fes) of 0.763 and a phosphorylation enrichment (EPHB2) of 0.475. For the same sequence, the phosphorylation enrichment (FGFR3) was 0.591, the SH2 binding enrichment (Grb2 SH2) was 0.817 and the SH2 binding enrichment (c-Src SH2) was 0.481. The SH2 binding enrichment (SHP2-C SH2) was 1.05.

In the case of GISDEYHVIRH [GCDH_Y398], the phosphorylation enrichment (FGFR1) is reported as 4.48, the phosphorylation enrichment (Fer (mouse)) is reported as 0.405 and the phosphorylation enrichment (Fyn) is reported as 0.64. For the same sequence, the phosphorylation enrichment (AncSZ) was 0.917, the phosphorylation enrichment (c-Src) was 0.664 and the phosphorylation enrichment (EPHB1) was 0.458. It also gave a phosphorylation enrichment (MERTK) of 0.339, a phosphorylation enrichment (Jak2) of 0.633 and a phosphorylation enrichment (Hck) of 0.962. The phosphorylation enrichment (c-Abl (mouse)) was 0.569, the phosphorylation enrichment (Fes) was 0.69 and the phosphorylation enrichment (EPHB2) was 0.475. The phosphorylation enrichment (FGFR3) was 2.26, the SH2 binding enrichment (Grb2 SH2) was 0.827 and the SH2 binding enrichment (c-Src SH2) was 0.941. It also gave an SH2 binding enrichment (SHP2-C SH2) of 0.606.

With GIVEEYQLPYY [BMPR1A_Y453] the phosphorylation enrichment (FGFR1) was 1.06, the phosphorylation enrichment (Fer (mouse)) was 0.66 and the phosphorylation enrichment (Fyn) was 0.647. The phosphorylation enrichment (AncSZ) was 3, the phosphorylation enrichment (c-Src) was 3.47 and the phosphorylation enrichment (EPHB1) was 0.611. It also gave a phosphorylation enrichment (MERTK) of 0.567, a phosphorylation enrichment (Jak2) of 1.29 and a phosphorylation enrichment (Hck) of 0.63. For the same sequence, the phosphorylation enrichment (c-Abl (mouse)) was 1.16, the phosphorylation enrichment (Fes) was 1.06 and the phosphorylation enrichment (EPHB2) was 0.642. It also gave a phosphorylation enrichment (FGFR3) of 0.946, an SH2 binding enrichment (Grb2 SH2) of 0.862 and an SH2 binding enrichment (c-Src SH2) of 4.36. The SH2 binding enrichment (SHP2-C SH2) was 0.997.

In the case of GIVKAYFVHAR [AIPL1_Y267_R270H_YF], the phosphorylation enrichment (FGFR1) is reported as 0.388, the phosphorylation enrichment (Fer (mouse)) is reported as 0.481 and the phosphorylation enrichment (Fyn) is reported as 0.449. It also gave a phosphorylation enrichment (AncSZ) of 0.795, a phosphorylation enrichment (c-Src) of 0.428 and a phosphorylation enrichment (EPHB1) of 0.422. For the same sequence, the phosphorylation enrichment (MERTK) was 0.448, the phosphorylation enrichment (Jak2) was 0.73 and the phosphorylation enrichment (Hck) was 0.461. For the same sequence, the phosphorylation enrichment (c-Abl (mouse)) was 0.602, the phosphorylation enrichment (Fes) was 0.872 and the phosphorylation enrichment (EPHB2) was 0.494. For the same sequence, the phosphorylation enrichment (FGFR3) was 0.605, the SH2 binding enrichment (Grb2 SH2) was 1.3 and the SH2 binding enrichment (c-Src SH2) was 1.01. The SH2 binding enrichment (SHP2-C SH2) was 1.71.

For GIVKAYFVRAR [AIPL1_Y267_YF], the phosphorylation enrichment (FGFR1) was 0.487, the phosphorylation enrichment (Fer (mouse)) was 0.463 and the phosphorylation enrichment (Fyn) was 0.488. The phosphorylation enrichment (AncSZ) was 1.11, the phosphorylation enrichment (c-Src) was 0.467 and the phosphorylation enrichment (EPHB1) was 0.445. The phosphorylation enrichment (MERTK) was 0.512, the phosphorylation enrichment (Jak2) was 1.13 and the phosphorylation enrichment (Hck) was 0.503. It also gave a phosphorylation enrichment (c-Abl (mouse)) of 0.669, a phosphorylation enrichment (Fes) of 0.991 and a phosphorylation enrichment (EPHB2) of 0.434. For the same sequence, the phosphorylation enrichment (FGFR3) was 0.558, the SH2 binding enrichment (Grb2 SH2) was 0.826 and the SH2 binding enrichment (c-Src SH2) was 0.506. The SH2 binding enrichment (SHP2-C SH2) was 0.756.

GKGGSYSKAES [HLA-E_Y341_W346S] showed a phosphorylation enrichment (FGFR1) of 0.391, a phosphorylation enrichment (Fer (mouse)) of 0.307 and a phosphorylation enrichment (Fyn) of 0.375. For the same sequence, the phosphorylation enrichment (AncSZ) was 0.485, the phosphorylation enrichment (c-Src) was 0.423 and the phosphorylation enrichment (EPHB1) was 0.3. The phosphorylation enrichment (MERTK) was 0.447, the phosphorylation enrichment (Jak2) was 0.386 and the phosphorylation enrichment (Hck) was 0.359. The phosphorylation enrichment (c-Abl (mouse)) was 0.462, the phosphorylation enrichment (Fes) was 0.514 and the phosphorylation enrichment (EPHB2) was 0.295. For the same sequence, the phosphorylation enrichment (FGFR3) was 0.394, the SH2 binding enrichment (Grb2 SH2) was 0.73 and the SH2 binding enrichment (c-Src SH2) was 0.389. It also gave an SH2 binding enrichment (SHP2-C SH2) of 0.499.
